Molecular target: T1, BMPR-1A receptor extra cellular domain (ECD), P36894
T1 chain: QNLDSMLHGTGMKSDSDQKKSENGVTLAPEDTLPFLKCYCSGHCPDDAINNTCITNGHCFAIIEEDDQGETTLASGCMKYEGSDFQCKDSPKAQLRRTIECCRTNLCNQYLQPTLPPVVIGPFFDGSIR
Test: radio-ligand competition: cold TDF-1 displacing 125I-labeled TDF-1 from immobilized BMPR-1A ECD
Conditions: remark: other sources report otherwise

B1: TDF-1 (BMP-7 or OP-1), P18075 293-431 (ligand, UniProt P18075 293-431, looked up)
chain: STGSKQRSQNRSKTPKNQEALRMANVAENSSSDQRQACKKHELYVSFRDLGWQDWIIAPEGYAAYYCEGECAFPLNSYMNATNHAIVQTLVHFINPETVPKPCCAPTQLNAISVLYFDDSSNVILKKYRNMVVRACGCH
ED50: 6.5 nM

Reference: patent publication US20110055942A1
